Measured values published in patent publication US9931373B2, “Method of reducing cancer cell proliferation by administering recombinant alpha-fetoprotein” (priority 2005, dated 2018).

Assays:
[1] = system: cells of B-cellular lymphoma Raji; assay: Nude line mice implanted with Raji lymphoma cells, tumor size; assay type: in vivo; settings: intraperitoneally daily for 20 days, 10 animals, listed as AFP
From the text: Anticancer preparations on the base of rAFP and of modified forms thereof may be used for inhibition of the growth of malignant neoplasms, such as primary or metastatic cancer of the liver, blood cancer (leucosis, myeloblastoma, lymphoma), breast cancer, prostate cancer. In order to determine the sensitivity of tumor cells to rAFP, it is possible to use different methods both in vitro and also in vivo. The method of determining activity in vitro is described in the preceding example 8. In order to determine the oncosuppressive action of preparations on the base of AFP in vivo, animal models may be used, for example Nude mice with subcutaneously or intraperitoneally implanted human lines of cancer cells, such as Raji, HepG2, LnCap, MCF-7 and others. For example, cells of B-cellular lymphoma Raji were administered subcutaneously in an amount of 1-5×10^6 per mouse. Administration of the rAFP and derivatives thereof was begun 7 days […] implantation of tumor cells intraperioneally or intravenously in an amount of 1-10 mg/kg. The physiological buffered solution (PBS) was used as a control. The size of the tumor was evaluated by daily measurements with the aid of a micrometer.

[2] = system: Human Umbilical Vein Endothelial Cells (HUVEC); assay: Wound healing assay with HUVEC; assay type: cell-based; settings: serum-free medium, 50 μg/ml rhAFP, 18 hrs; HSA as control
Procedure: HUVECs were plated onto the gelatin-coated 24-well plates, and grown for confluence. Than monolayers were wounded by scrapper, and cells were incubated in the serum-free medium with 0.1-0.5 mg/ml of rhAFP or HSA.
To test ability of rhAFP to stimulate regeneration of damaged tissue we established classical wound healing assay with normal Human Umbilical Vein Endothelial Cells (HUVEC) obtained after surgical resection of human vein tissue. HUVEC cells were cultivated in DMEM/F12 medium with addition 10% FBS and 0.1% ECGF on the 60 mm Petri dishes at 37° C. at 5% CO2 atmosphere. HUVECs were plated on gelatin-coated 24-well plates, and grown for confluence, than monolayers were wounded and cells were incubated in serum-free medium with 50 μg/ml rhAFP or 50 μg/ml HSA, healing was observed after 18 hrs incubation. Images of wound healing were taken after staining with crystal violet.

[3] = system: embryonal fibroblasts of the lung and human retina; assay: Growth of primary culture of human embryonal fibroblasts, [H3]-thymidine; assay type: cell-based; settings: 24 hours, FIG. 7
Procedure: Proliferation of the cells was measured by a standard method of [H^3]-thymidine incorporation during the last four hours of culture and expressed in percent of the stimulation of growth in test cultures in respect of a control without AFP.
The primary culture of embryonal fibroblasts of the lung and human retina was obtained by treating with 0.25% trypsin solution corresponding tissues of 5-10 week embryos obtained after legal abortions. The cells were cultures in an RPMI-1640 medium in the presence of a 10% calf fetal serum (CFS). The cytostatic activity of AFP was measured as earlier described (Semenkova, L. 1997, Tumor Biol. 18, 261-274; Dudich E. I., et al., 1998, Tumor Biol. 198, 30-40). Cells in an amount of 4×10^4 in a 0.15 ml medium were intensively washed with a fresh to medium and placed in each cell of a 96-lune plate, then different doses of AFP were added and cultures 24 hours. Proliferation of the cells was measured by a standard method by the inclusion of [H^3]-thymidine during the last four hours of culturing.

B1: rhAFP: recombinant human alpha-fetoprotein secreted by yeast Saccharomyces cerevisiae YBS723/pKX, glycosylated, mature human AFP sequence SEQ ID NO:2 (protein, listed as Homo sapiens)
chain: TLHRNEYGIASILDSYQCTAEISLADLATIFFAQFVQEATYKEVSKMVKDALTAIEKPTGDEQSSGCLENQLPAFLEELCHEKEILEKYGHSDCCSQSEEGRHNCFLAHKKPTPASIPLFQVPEPVTSCEAYEEDRETFMNKFIYEIARRHPFLYAPTILLWAARYDKIIPSCCKAENAVECFQTKAATVTKELRESSLLNQHACAVMKNFGTRTFQAITVTKLSQKFTKVNFTEIQKLVLDVAHVHEHCCRGDVLDCLQDGEKIMSYICSQQDTLSNKITECCKLTTLERGQCIIHAENDEKPEGLSPNLNRFLGDRDFNQFSSGEKNIFLASFVHEYSRRHPQLAVSVILRVAKGYQELLEKCFQTENPLECQDKGEEELQKYIQESQALAKRSCGLFQKLGEYYLQNAFLVAYTKKAPQLTSSELMAITRKMAATAATCCQLSEDKLLACGEGAADIIIGHLCIRHEMTPVNPGVGQCCTSSYANRRPCFSSLVVDETYVPPAFSDDKFIFHKDLCQAQGVALQTMKQEFLINLVKQKPQITEEQLEAVIADFSGLLEKCCQGQEQEVCFAEEGQKLISKTRAALGV
modifications: yeast glycosylation
Results (number of animals - tumor outcome) ([1]; 0.5 mg AFP per injection): 2-stabilization
Results (number of animals - tumor outcome) ([1]; 0.5 mg AFP per injection, animals where tumor did not develop): 3-tumor did not develop
Results (number of animals - tumor outcome) ([1]; 0.5 mg AFP per injection, animals with 50% tumor inhibition): 5-50% inhibition
Results (number of animals - tumor outcome) ([1]; 1 mg AFP per injection): 2-stabilizaton
Results (number of animals - tumor outcome) ([1]; 1 mg AFP per injection, animals where tumor did not develop): 3-tumor did not develop
Results (number of animals - tumor outcome) ([1]; 1 mg AFP per injection, animals with 50% tumor inhibition): 5-50% inhibition
Results (number of animals - tumor outcome) ([1]; 2 mg AFP per injection): 2-stabilization
Results (number of animals - tumor outcome) ([1]; 2 mg AFP per injection, animals where tumor did not develop): 3-tumor did not develop
Results (number of animals - tumor outcome) ([1]; 2 mg AFP per injection, animals with 50% tumor inhibition): 5-50% inhibition
migration of HUVEC to the wounded area [2]: significantly activated the migration of HUVEC to the wounded area
stimulating effect on cellular growth in respect to the control [3]: 50-90%
